Data from patent US20250074996A1 (Innovent, published 2025).
Positions count from the first letter of the chain named. Read-outs that look alike come from different tables or passages of the source.

B1: TS-F2-3 (ch7F5D4/SP34.24/38456) (antibody, human IgG1, kappa, lambda, L234A L235A)
heavy 1: not shown
light 1: DIQMTQTTSSLSASLGDRVTISCRASQDIRNYLNWYQQRPDGTIKLLIYYTSRLHSGVPSRFSGSGSGTDYSLTISNLDQEDFATYFCQQGNMLPWTFGGGTSLEIKRTVAAPSVFIFPPSDEQLKSGTASVVCLLNNFYPREAKVQWKVDNALQSGNSQESVTEQDSKDSTYSLSSTLTLSKADYEKHKVYACEVTHQGLSSPVTKSFNRGEC
heavy 2: not shown
light 2: QAVVTQEPSLTVSPGGTVTLTCRSSTGAVTTSNYANWVQQKPGQAPRGLIGGTNKRAPGVPARFSGSLLGDKAALTLLGAQPEDEAEYYCALWYSNLWVFGQGTKLTVLGQPKAAPSVTLFPPSSEELQANKATLVCLISDFYPGAVTVAWKADSSPVKAGVETTTPSKQSNNKYAASSYLSLTPEQWKSHRSYSCQVTHEGSTVEKTVAPTECS
B2: TS-F2-1 (HB15H1G1/SP34.24/38456) (antibody, human IgG1, kappa, lambda, L234A L235A)
heavy 1: not shown
light 1: not shown
heavy 2: not shown
light 2: B1 light 2
B3: TS-F2-2 (38456/SP34.24/HB15H1G1) (antibody, human IgG1, kappa, lambda, L234A L235A)
heavy 1: not shown
light 1: not shown
heavy 2: not shown
light 2: B1 light 2
B4: TS-F6-2 (antibody, human IgG1, kappa, L234A L235A)
heavy: not shown
light: DIQMTQTTSSLSASLGDRVTISCRASQDIRNYLNWYQQRPDGTIKLLIYYTSRLHSGVPSRFSGSGSGTDYSLTISNLDQEDFATYFCQQGNMLPWTFGGGTSLEIKRTVAAPSVFIFPPSDEQLKSGTASVVCLLNNFYPREAKVQWKVDNALQSGNSQESVTEQDSKDSTYSLSSTLTLSKADYEKHKVYACEVTHQGLSSPVTKSFNRGECGGGGSGGGGSEVQLVESGGGLVQPGGSLKLSCAASGFTFNTYAMNWVRQASGKCLEWVGRIRSKYNNYATYYADSVKDRFTISRDDSKSTLYLQMNSLKTEDTAVYYCARHGNFGQSYVSWFAYWGQGTTVTVSSGGGGSGGGGSGGGGSGGGGSQAVVTQEPSLTVSPGGTVTLTCRSSTGAVTTSNYANWVQQKPGQAPRGLIGGTNKRAPGVPARFSGSLLGDKAALTLLGAQPEDEAEYYCALWYSNLWVFGCGTKLTVL
B5: GPRC5D × CD3 (HB15H/hzsp34.24) (bispecific antibody, V domains shown)
VH 1: QVQLVESGGGVVQPGRSLRLSCTASGFTFSSYGLHWVRQAPGKGLEWVAVIWYDGSNKYYIDSVKGRFIISRDNSKNTLYLQMNSLRAEDTAVYYCARFTMFRGITLDYWGQGTLVTVSS
VL 1: DIQMTQSPSSLSASVGDRVTITCRASQRINSYLNWYQQKPGKAPKLLIYAASSLQSGVPSRFSGSGSGTDFTLTISNLQPEDFATYYCQQSYSTPLTFGGGTKVEIK
VH 2: EVQLVESGGGLVQPGGSLKLSCAASGFTFNTYAMNWVRQASGKGLEWVGRIRSKYNNYATYYADSVKDRFTISRDDSKSTLYLQMNSLKTEDTAVYYCARHGNFGQSYVSWFAYWGQGTTVTVSS
VL 2: QAVVTQEPSLTVSPGGTVTLTCRSSTGAVTTSNYANWVQQKPGQAPRGLIGGTNKRAPGVPARFSGSLLGDKAALTLLGAQPEDEAEYYCALWYSNLWVFGQGTKLTVL
B6: GPRC5D×CD3 bispecific antibody (ch7F5D4/hzsp34.24) (bispecific antibody, V domains shown)
VH 1: DVQLQESGPGLVKPSQSLSLTCTVTGYSITSDYAWNWIRQFPGNKLEWMVYIDYTGRTSYNPSLKSRISLTRDTSKNQFFLQFNSVTTEDTATYYCARGNYGRYYYVMDYWGQGTSVTVSS
VL 1: DIQMTQTTSSLSASLGDRVTISCRASQDIRNYLNWYQQRPDGTIKLLIYYTSRLHSGVPSRFSGSGSGTDYSLTISNLDQEDFATYFCQQGNMLPWTFGGGTSLEIK
VH 2: B5 VH 2
VL 2: B5 VL 2
B7: GPRC5D×CD3 bispecific antibody hz5E12.1-P1/SP34.24 (bispecific antibody, V domains shown)
VH 1: QVQLVQSGAEVKKPGASVKVSCKASGYTFIGYVMHWVRQAPGQGLEWMGYINPYNDVSQHQGKFKGRVTMTSDTSTSTVYMELSSLRSEDTAVYYCAREGRLGLRVLAYWGQGTLVTVSS
VL 1: DIVMTQSPDSLAVSLGERATINCRASESVDSYGITFMNWYQQKPGQPPKLLIYAASNQGSGVPDRFSGSGSGTDFTLTISSLQAEDVAVYYCQQSKEVPWTFGQGTKLEIK
VH 2: B5 VH 2
VL 2: B5 VL 2
B8: BCMA×CD3 bispecific antibody (38456/hzsp34.24) (bispecific antibody, V domains shown)
VH 1: EVQLVESGGGLVQPGRSLRLSCAASGFTFGDYAIHWVRQAPGKGLEWVSGISWDSSSIAYADSVKGRFTISRDNAKNSLYLQMNSLRAEDTAVYYCAKDSPVRDSFGSIAFDIWGQGTMVTVSS
VL 1: EIVLTQSPATLSLSPGERATLSCRASQSVSSYLAWYQQKPGQAPRLLIYDASKRATGIPARFSGSGSGTDFTLTISSLEPEDFAVYYCQQASALPLTFGGGTKVEIK
VH 2: B5 VH 2
VL 2: B5 VL 2
B9: GPRC5D×CD3 bispecific antibody hz5E12.1-P1/SP34.87 (bispecific antibody, V domains shown)
VH 1: B7 VH 1
VL 1: B7 VL 1
VH 2: B5 VH 2 with G102Y
VL 2: B5 VL 2
B10: TS-F6-1 (antibody, human IgG1, kappa, L234A L235A)
heavy: not shown
light: DIQMTQTTSSLSASLGDRVTISCRASQDIRNYLNWYQQRPDGTIKLLIYYTSRLHSGVPSRFSGSGSGTDYSLTISNLDQEDFATYFCQQGNMLPWTFGGGTSLEIKRTVAAPSVFIFPPSDEQLKSGTASVVCLLNNFYPREAKVQWKVDNALQSGNSQESVTEQDSKDSTYSLSSTLTLSKADYEKHKVYACEVTHQGLSSPVTKSFNRGECGGGGSGGGGSQAVVTQEPSLTVSPGGTVTLTCRSSTGAVTTSNYANWVQQKPGQAPRGLIGGTNKRAPGVPARFSGSLLGDKAALTLLGAQPEDEAEYYCALWYSNLWVFGCGTKLTVLGGGGSGGGGSGGGGSGGGGSEVQLVESGGGLVQPGGSLKLSCAASGFTFNTYAMNWVRQASGKCLEWVGRIRSKYNNYATYYADSVKDRFTISRDDSKSTLYLQMNSLKTEDTAVYYCARHGNFGQSYVSWFAYWGQGTTVTVSS

Assays:
[1] = biological target: T1, CD3E on the surface of Jurkat-NFAT-Luc cells (UniProt P07766 23-207); assay: cell-based or functional assay
[2] = biological target: T1, CD3E on the surface of Jurkat-NFAT-Luc …; assay: cell-based or functional assay; remark: listed apart in the source
[3] = biological target: T1, CD3E on the surface of Jurkat-NFAT-Luc …; assay: cell-based or functional assay; remark: listed apart in the source
Cyno CD3D&E-Bio = biological target: T2, Cyno CD3D&E-Bio (monkey (cyno), UniProt Q95LI5 22-117; Q95LI8 22-105, biotin-labeled (site not stated)); assay: BLI (Octet Red96e), SA or AHC sensors, 1:1 fit
T2 construct: Bought heterodimer antigen; also called monkey CD3D&E heterodimer antigen (ACRO Biosystems); monkey CD3E
Description: (§1) Sensors (Fortebio, Cat #18-5019) coupled to streptavidin protein (SA) or anti-human-Fc (AHC) were pre-wetted by immersion in 200 μL of SD buffer (1×PBS, 0.1% BSA, 0.05% tween-20). Exemplary antibodies and biotin-labeled or Fc-tagged BCMA and CD3D&E heterodimer antigens were diluted with SD buffer, respectively. 200 μL of SD buffer and diluted samples (100 nM) were taken and added to a 96-well black plate (Greiner, Cat #655209), respectively. The sensors and the samples were placed in Octet (Fortebio, Red96e). Data Acquisition 10.0 was executed and “New Kinetic Experiment” was selected. The sensors were arranged according to the positions of the samples, and the operation procedures and times were set as: Baseline 60 s, Loading 250 s, Baseline 100 s, Association 600 s and Dissociation 600 s. The experiment was conducted at a rotation speed of 1000 rpm and 30° C.
(§2) The results were analyzed in “Data Analysis 10.0” software, with the buffer reference channel being subtracted. 1:1 binding was selected to fit the data, and kₒₙ, koff, and KD values for the exemplary antibodies were calculated.
(§3) In experiments performed according to the above-mentioned assay, the affinities of the exemplary antibodies were detected using a human CD3D&E heterodimer antigen (ACRO Biosystems) and a monkey CD3D&E heterodimer antigen (ACRO Biosystems). The binding affinities of GPRC5D×CD3 bispecific antibodies hz5E12.1-P1/SP34.24 and hz5E12.1-P1/SP34.87 to human/monkey CD3D&E were also detected.

Human CD3D&E-Bio = biological target: T3, Human CD3D&E-Bio (human, UniProt P07766 23-126; P04234 22-105, biotin-labeled (site not stated)); assay: BLI (Octet Red96e), SA or AHC sensors, 1:1 fit
T3 construct: Bought heterodimer antigen; also called human CD3D&E heterodimer antigen (ACRO Biosystems); human CD3E
Description: as §1, §2, §3

[4] = biological target: T1, CD3E on the surface of Jurkat-NFAT-Luc …; assay: cell-based or functional assay; remark: listed apart in the source
[5] = biological target: T1, CD3E on the surface of Jurkat-NFAT-Luc …; assay: cell-based or functional assay; remark: listed apart in the source

T1 sequence (P07766 23-207): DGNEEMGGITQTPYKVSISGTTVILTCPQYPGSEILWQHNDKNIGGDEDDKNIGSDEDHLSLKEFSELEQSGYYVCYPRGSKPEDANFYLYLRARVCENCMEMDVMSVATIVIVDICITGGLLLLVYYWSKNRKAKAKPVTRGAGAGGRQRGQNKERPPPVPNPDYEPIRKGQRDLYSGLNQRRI
T2 sequence (Q95LI5 22-117 limits assumed, chain 1 of 2): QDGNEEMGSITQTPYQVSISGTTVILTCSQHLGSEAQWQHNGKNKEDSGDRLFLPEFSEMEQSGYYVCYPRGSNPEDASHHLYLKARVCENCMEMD
T2 sequence (Q95LI8 22-105 limits assumed, chain 2 of 2): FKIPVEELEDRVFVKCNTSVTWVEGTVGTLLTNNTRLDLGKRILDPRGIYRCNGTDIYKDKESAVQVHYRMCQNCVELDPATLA
T3 sequence (P07766 23-126 limits assumed, chain 1 of 2): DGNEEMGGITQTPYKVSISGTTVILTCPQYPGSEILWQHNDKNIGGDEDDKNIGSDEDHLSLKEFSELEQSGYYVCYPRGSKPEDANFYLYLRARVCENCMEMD
T3 sequence (P04234 22-105 limits assumed, chain 2 of 2): as the sequence (Q95LI8 22-105 limits assumed, chain 2 of 2) above, with V5I, K15N, V20I, T32S, N33D, N34I, A64T, N74S, L83V counted along it

Binder | EC50 of Jurkat-NFAT-Luc luciferase activation; target cells huGPRC5D-GS-CHO [1] [nM] | EC50 of Jurkat-NFAT-Luc luciferase activation; tumor cells H929 [1] [nM] | EC50 of Jurkat-NFAT-Luc luciferase activation; tumor cells L363 [1] [nM] | EC50 of Jurkat-NFAT-Luc luciferase activation; tumor cells U266 [1] [nM] | EC50 of Jurkat-NFAT-Luc luciferase activation; tumor cells L363 [2] [nM] | EC50 of Jurkat-NFAT-Luc luciferase activation; tumor cells 8226 [4] [nM] | EC50 of Jurkat-NFAT-Luc luciferase activation; tumor cells H929 [4] [nM] | EC50 of Jurkat-NFAT-Luc luciferase activation; tumor cells L363 [4] [nM] | EC50 of Jurkat-NFAT-Luc luciferase activation; tumor cells U266 [4] [nM] | other results
B1 | 0.00145 | 0.00547 | 0.00286 | 0.047 | – | – | – | – | – | –
B2 | – | – | – | – | 0.24 | – | – | – | – | –
B3 | – | – | – | – | 0.13 | – | – | – | – | EC50 of Jurkat-NFAT-Luc luciferase activation; tumor cells H929 [2]: 0.01 nM
B4 | – | 2.2 | 0.0617 | – | – | – | – | – | – | –
B5 | – | – | – | – | 0.28 | – | – | – | – | EC50 of Jurkat-NFAT-Luc luciferase activation; tumor cells H929 [2]: 0.01 nM
B6 | 0.00566 | 0.00772 | 0.00562 | 0.0361 | – | – | – | – | – | –
B7 | – | – | – | – | – | 0.00318 | 0.00656 | 0.00559 | 0.0057 | EC50 of Jurkat-NFAT-Luc luciferase activation; tumor cells ARD [3]: 0.00273 nM; EC50 of Jurkat-NFAT-Luc luciferase activation; tumor cells MM.1S [3]: 0.00225 nM; Kd (Cyno CD3D&E-Bio): 26 nM; koff (Cyno CD3D&E-Bio): 0.00319 s⁻¹; kon (Cyno CD3D&E-Bio): 123000 M⁻¹ s⁻¹; Kd (Human CD3D&E-Bio): 21.4 nM; koff (Human CD3D&E-Bio): 0.00335 s⁻¹; kon (Human CD3D&E-Bio): 156000 M⁻¹ s⁻¹; EC50 of Jurkat-NFAT-Luc luciferase activation; tumor cells 8226 [5]: 0.00318 nM; EC50 of Jurkat-NFAT-Luc luciferase activation; tumor cells H929 [5]: 0.00656 nM; EC50 of Jurkat-NFAT-Luc luciferase activation; tumor cells L363 [5]: 0.00559 nM; EC50 of Jurkat-NFAT-Luc luciferase activation; tumor cells U266 [5]: 0.0057 nM
B8 | – | – | – | – | – | 0.00482 | 0.0596 | 0.0366 | 0.011 | –
B9 | – | – | – | – | – | 0.0201 | 0.0453 | 0.0389 | 0.145 | EC50 of Jurkat-NFAT-Luc luciferase activation; tumor cells ARD [3]: 0.0149 nM; EC50 of Jurkat-NFAT-Luc luciferase activation; tumor cells MM.1S [3]: 0.0183 nM; Kd (Cyno CD3D&E-Bio): 290 nM; koff (Cyno CD3D&E-Bio): 0.0169 s⁻¹; kon (Cyno CD3D&E-Bio): 58300 M⁻¹ s⁻¹; Kd (Human CD3D&E-Bio): 285 nM; koff (Human CD3D&E-Bio): 0.0176 s⁻¹; kon (Human CD3D&E-Bio): 61900 M⁻¹ s⁻¹
B10 | 0.00966 | 3.79 | 0.0771 | 0.366 | – | – | – | – | – | –
